Reference: patent US20130136731

Target: thrombin, P00734

B1: native tissue plasminogen activator (protein)
chain: SYQVICRDEKTQMIYQQHQSWLRPVLRSNRVEYCWCNSGRAQCHSVPVKSCSEPRCFNGGTCQQALYFSDFVCQCPEGFAGKCCEIDTRATCYEDQGISYRGTWSTAESGAECTNWNSSALAQKPYSGRRPDAIRLGLGNHNYCRNPDRDSKPWCYVFKAGKYSSEFCSTPACSEGNSDCYFGNGSAYRGTHSLTESGASCLPWNSMILIGKVYTAQNPSAQALGLGKHNYCRNPDGDAKPWCHVLKNRRLTWEYCDVPSCSTCGLRQYSQPQFRIKGGLFADIASHPWQAAIFAKHRRSPGERFLCGGILISSCWILSAAHCFQERFPPHHLTVILGRTYRVVPGEEEQKFEVEKYIVHKEFDDDTYDNDIALLQLKSDSSRCAQESSVVRTVCLPPADLQLPDWTECELSGYGKHEALSPFYSERLKEAHVRLYPSSRCTSQHLLNRTVTDNMLCAGDTRSGGPQANLHDACQGDSGGPLVCLNDGRMTLVGIISWGLGCGQKDVPGVYTKVTNYLDWIRDNMRP
- clotting time assay (fibrin mesh formation): fibrin mesh formation in presence or absence of native tPA up to high micro molar concentrations was essentially unaltered compared to buffer controls
